B1: SubB ΔS106/ΔT107/E108D (natural protein)
chain: EWTGDARDGMFSGVVITQFHTGQIDNKPYFCIEGKQSAGSSISACSMKNSSVWGASFSTLYNQALYFYTTGQPVRIYYKPGVWTYPPFVKALTSNALVGLSTCTTDCFGPDRKKNS
notes: source: E. coli BL21(DE3), pET-23(+), purified (Ni-NTA)
B2: Subtilase cytotoxin B subunit (SubB), wild type (natural protein)
chain: EWTGDARDGMFSGVVITQFHTGQIDNKPYFCIEGKQSAGSSISACSMKNSSVWGASFSTLYNQALYFYTTGQPVRIYYKPGVWTYPPFVKALTSNALVGLSTCTTSTECFGPDRKKNS
notes: also called Wild type SubB; wild-type SubB; source: E. coli BL21(DE3), pET-23(+), purified (Ni-NTA)
B3: SubB S106A/T107A (natural protein)
chain: EWTGDARDGMFSGVVITQFHTGQIDNKPYFCIEGKQSAGSSISACSMKNSSVWGASFSTLYNQALYFYTTGQPVRIYYKPGVWTYPPFVKALTSNALVGLSTCTTAAECFGPDRKKNS
notes: as for B1
B4: bovine α1-acid glycoprotein (AGP) (natural protein)
chain: QSPECANLMTVAPITNATMDLLSGKWFYIGSAFRNPEYNKSARAIQAAFFYLEPRHAEDKLITREYQTIEDKCVYNCSFIKIYRQNGTLSKVESDREHFVDLLLSKHFRTFMLAASWNGTKNVGVSFYADKPEVTQEQKKEFLDVIKCIGIQESEIIYTDEKKDACGPLEKQHEEERKKETEAS
modifications: glycans that contain both Neu5Ac and Neu5Gc
notes: also called Bovine α1-AGP; bovine AGP

Key:
Details in all cases: both partners purified
[1] = target: B4; experiment: SPR
[2] = target: B4; experiment: SPR; Biacore T100; SubB or SubB mutant immobilised on a series S CM5 chip (flow cell 1 blank); AGP flowed over, 0.01-100 µM in range finding; single cycle kinetics
[3] = target: T1, SubB ΔS106/ΔT107 (Escherichia coli, UniProt Q6EZC3 24-141, ΔS106/ΔT107); experiment: SPR
T1 construct: source: E. coli BL21(DE3), pET-23(+), purified (Ni-NTA)

| Binder | Kd [1] | other results |
| --- | --- | --- |
| B1 | 32.5 ± 2.6 nM | – |
| B2 | – | Kd [2]: 156 ± 22 nM |
| B3 | 164 ± 10 nM | – |
| B4 | – | Kd [3]: 115 ± 37 nM |

From article PMC5431456, “Structure aided design of a Neu5Gc specific lectin” (Scientific Reports, 2017)
